Results on four molecules are retold here after patent publication US20190359726A1 (CRAGE MEDICAL, published 2019).

Broadly, the koff is the rate constant with which the complex falls apart. Low values mean a long-lived complex, high ones a short-lived complex. For orientation: EC50 means the midpoint of the concentration-response curve. A lower EC50 goes with an effect from little substance.

One assay concerns the target T1, TACI huFc (R&D, #174TC) (human, UniProt O14836 2-166, limits assumed).
T1 construct: Bought reagent; also called human TACI; not shown: human Fc (huFc)
T1 sequence (looked up): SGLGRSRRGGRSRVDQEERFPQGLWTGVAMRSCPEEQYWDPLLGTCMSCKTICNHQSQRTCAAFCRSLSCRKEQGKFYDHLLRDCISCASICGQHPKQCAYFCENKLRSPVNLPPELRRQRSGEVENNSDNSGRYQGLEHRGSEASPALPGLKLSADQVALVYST
In words: ELISA(scFv), 2 ug/ml coated antigen, HRP anti-Flag tag antibody. As to the method:
(§1) 2 ug/ml recombinant human BCMA Fc, mouse BCMA Fc, TACI huFc (R&D, #174TC), BAFF R (R&D, #1162-BR) were coated on immunoplates at 4° C. overnight. The next day, 300 μl/well of 2% MPBS was added for 2 hours, then 200 nM purified antibody (scFv format) was added and incubated at 37° C. for 1 hour, washed three times with PBST (PBS containing 0.05% Tween-20), and washed three times with PBS. And then 1:4000 diluted HRP-labeled anti-Flag tag antibody (sigma, #A8592-1MG) was added, incubated for 1 hour at 37° C., washed three times with PBST (PBS containing 0.05% Tween-20) and washed three times with PBS. 100 ul/well of TMBS substrate was added and developed for 10-15 minutes. The reaction was quenched by adding 50 ul of 2 M sulfuric acid.

In a further assay the target is T2, BAFF R (R&D, #1162-BR) (human, UniProt Q96RJ3 7-71, limits assumed).
T2 construct: Bought reagent; also called human BAFF R
T2 sequence (looked up): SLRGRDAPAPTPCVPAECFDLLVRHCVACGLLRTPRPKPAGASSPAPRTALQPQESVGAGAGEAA
The description is as above. As to the method:
as §1

The target in assay [1] is BCMA_huFc (human). As to the kind of experiment: biacore, supernatant of the clone after reinduction; column headed Dissociation constant (Kd, S^-1). In general terms: In SPR one partner is held on a chip, and binding of the other changes the refractive index at the surface.
For assay [2], the target named is BCMA_huFc (human). As to the kind of experiment: biacore, supernatant of the clone after reinduction.
The target in assay [3] is T3, recombinant human BCMA Fc (human, UniProt Q02223 1-54).
T3 construct: not shown: Fc
T3 sequence: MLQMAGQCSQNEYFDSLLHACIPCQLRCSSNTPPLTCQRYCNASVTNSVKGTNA
In words: ELISA(scFv), 2 ug/ml coated antigen, 200 nM scFv, HRP anti-Flag tag antibody. As to the method:
as §1

Assay [4] has as its target T4, human BCMA, full length, on cells (human, UniProt Q02223 1-184).
T4 construct: the cell line is named in each row's assay; also called K562-BCMA; K562 stably expressing BCMA
T4 sequence: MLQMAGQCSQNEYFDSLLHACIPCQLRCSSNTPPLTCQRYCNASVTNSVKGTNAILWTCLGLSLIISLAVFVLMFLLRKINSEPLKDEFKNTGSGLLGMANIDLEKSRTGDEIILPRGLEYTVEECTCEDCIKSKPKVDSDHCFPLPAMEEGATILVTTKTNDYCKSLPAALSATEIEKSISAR
As to the kind of experiment: flow cytometry on K562-BCMA cells, scFv_Fc titrated, FITC anti-human Fc. As to the method: K562 and K562 cells (K562-BCMA) stably expressing human BCMA were used and harvested, washed with complete growth medium, and plated into U-bottom microtiter plates at about 1 to 5×10⁵ cells/well. The gradient-diluted scFv_Fc fusion antibody was incubated with K562-BCMA/K562 for 30 minutes on ice, and then incubated with FITC-labeled anti-human Fc as a secondary antibody. After two washing steps, the analysis was performed using a Guava easyCyte™ HT System, and the experimental data was processed using GraphPad Prism to obtain an EC50.

B1: 25C2 scFv (scFv)
scFv: EVQLLESGGGLVQPGGSLRLSCAASGFTFGGNAMSWVRQAPGKGLEWVSAISGNGGSTFYADSVKGRFTISRDNSKNTLYLQMNSLRAEDTAVYYCAKVRPFWGTFDYWGQGTLVTVSSGGGGSGGGGSGGGGSEIVLTQSPGTLSLSPGERATLSCRASQSVSSSYLAWYQQKPGQAPRLLIYGASSRATGIPDRFSGSGSGTDFTLTISRLEPEDFAVYYCQQYFNPPEYTFGQGTKVEIKR
notes: scFv format; also called clone 25C2
Turning to B1, the binding result with TACI huFc (R&D, #174TC) is “no binding (tested: 200 nM)”; with BAFF R (R&D, #1162-BR) it was “no binding (tested: 200 nM)”; in assay [3] it was “binds”. In the assay with BCMA_huFc [1], the koff is 0.000364 s⁻¹. In the assay with BCMA_huFc [2], the “fold lower Kd (dissociation rate) than parental clone 23F10” value was 10 times.

B2: 25D2 scFv (scFv)
scFv: EVQLLESGGGLVQPGGSLRLSCAASGFTFRSYAMSWVRQAPGKGLEWVSAISGGGGNTFYADSVKGRFTISRDNSKNTLYLQMNSLRAEDTAVYYCAKVRPFWGTFDYWGQGTLVTVSSGGGGSGGGGSGGGGSEIVLTQSPGTLSLSPGERATLSCRASQSVSSSYLAWYQQKPGQAPRLLIYGASSRATGIPDRFSGSGSGTDFTLTISRLEPEDFAVYYCQQYFNPPEYTFGQGTKVEIKR
notes: scFv format; also called clone 25D2
On to B2, for which the binding result was “no binding (tested: 200 nM)” in the assay with TACI huFc (R&D, #174TC); “no binding (tested: 200 nM)” in the assay with BAFF R (R&D, #1162-BR); “binds” in assay [3]. In the assay with BCMA_huFc [1], this molecule registered a koff of 0.000374 s⁻¹. The “fold lower Kd (dissociation rate) than parental clone 23F10” value with BCMA_huFc [2] was 10 times.

B3: 25C2 (scFv_Fc) (Fc fusion)
chain: EVQLLESGGGLVQPGGSLRLSCAASGFTFGGNAMSWVRQAPGKGLEWVSAISGNGGSTFYADSVKGRFTISRDNSKNTLYLQMNSLRAEDTAVYYCAKVRPFWGTFDYWGQGTLVTVSSGGGGSGGGGSGGGGSEIVLTQSPGTLSLSPGERATLSCRASQSVSSSYLAWYQQKPGQAPRLLIYGASSRATGIPDRFSGSGSGTDFTLTISRLEPEDFAVYYCQQYFNPPEYTFGQGTKVEIK
notes: also called clone 25C2; not shown: human Fc fragment of vector V152
Regarding B3, in assay [4], the EC50 was found to be 2.59 nM.

B4: 25D2 (scFv_Fc) (Fc fusion)
chain: EVQLLESGGGLVQPGGSLRLSCAASGFTFRSYAMSWVRQAPGKGLEWVSAISGGGGNTFYADSVKGRFTISRDNSKNTLYLQMNSLRAEDTAVYYCAKVRPFWGTFDYWGQGTLVTVSSGGGGSGGGGSGGGGSEIVLTQSPGTLSLSPGERATLSCRASQSVSSSYLAWYQQKPGQAPRLLIYGASSRATGIPDRFSGSGSGTDFTLTISRLEPEDFAVYYCQQYFNPPEYTFGQGTKVEIK
notes: also called clone 25D2; not shown: human Fc fragment of vector V152
In the case of B4, a half-maximal effect in assay [4] (EC50) was put at 1.89 nM.
